Starred links: 1 amine or outer side, 2 acyl side, 3 side chain; linkers in the order of their positions; H or OH if unused. Non-standard residues stand in square brackets, D forms with d. *: point of attachment. AC4Abu = α-carboxy-4-aminobutyric acid, O=C(C(CCN[*:1])C(=O)[*:3])[*:2]; Oic = O=C(O)[C@@H]1C[C@@H]2CCCC[C@@H]2N1; Phe(4-Cl) = N[C@@H](Cc1ccc(Cl)cc1)C(=O)O; dPhe(4-I) = N[C@H](Cc1ccc(I)cc1)C(=O)O; γGlu = O=C(O)[C@H](CCC(=O)[*:2])N[*:1]; d2Nal = N[C@H](Cc1ccc2ccccc2c1)C(=O)O; dIgl = N[C@@H](C(=O)O)C1Cc2ccccc2C1; B4ClF = β-4-chloro-L-phenylalanine; NMeR = CN[C@@H](CCCNC(=N)N)C(=O)O; Tridecanoyl = CCCCCCCCCCCCC(=O)*; hArg = N=C(N)NCCCC[C@H](N)C(=O)O; Cha = N[C@@H](CC1CCCCC1)C(=O)O; αMeL = CC(C)C[C@](C)(N)C(=O)O; Aic = NC1(C(=O)O)Cc2ccccc2C1; Tle = CC(C)(C)[C@H](N)C(=O)O; Nle = CCCC[C@H](N)C(=O)O; Deg = CCC(N)(CC)C(=O)O; AEEA = NCCOCCOCC(=O)O; Aib = CC(C)(N)C(=O)O
T1: rat APJ receptor (rat, UniProt Q9JHG3 1-377)
T1 sequence (looked up): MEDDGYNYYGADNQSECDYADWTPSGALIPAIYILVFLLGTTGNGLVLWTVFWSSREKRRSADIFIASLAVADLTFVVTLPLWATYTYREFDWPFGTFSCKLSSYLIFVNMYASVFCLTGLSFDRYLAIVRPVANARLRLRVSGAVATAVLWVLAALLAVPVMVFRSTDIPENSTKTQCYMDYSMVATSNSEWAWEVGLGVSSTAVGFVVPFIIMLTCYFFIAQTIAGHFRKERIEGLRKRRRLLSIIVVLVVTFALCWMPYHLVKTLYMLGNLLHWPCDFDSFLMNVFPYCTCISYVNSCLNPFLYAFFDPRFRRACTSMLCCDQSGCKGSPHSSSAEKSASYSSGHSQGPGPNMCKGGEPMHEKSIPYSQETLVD

T2: human APJ receptor (human, UniProt P35414 1-380)
T2 sequence (looked up): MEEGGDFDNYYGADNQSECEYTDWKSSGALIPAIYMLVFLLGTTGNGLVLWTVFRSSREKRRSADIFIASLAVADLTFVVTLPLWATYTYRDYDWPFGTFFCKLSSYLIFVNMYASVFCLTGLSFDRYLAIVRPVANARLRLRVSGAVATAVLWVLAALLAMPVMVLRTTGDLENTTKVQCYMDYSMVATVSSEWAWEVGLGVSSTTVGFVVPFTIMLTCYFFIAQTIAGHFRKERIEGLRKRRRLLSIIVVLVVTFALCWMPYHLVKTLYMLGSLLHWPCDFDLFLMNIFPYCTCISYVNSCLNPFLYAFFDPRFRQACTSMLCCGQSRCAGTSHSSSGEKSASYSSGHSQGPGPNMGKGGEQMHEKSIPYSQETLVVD

B1: Apelin polypeptide SEQ ID NO: 407 (peptide)
peptide: Tridecanoyl-[AC4Abu][AEEA][AEEA][dQ][hArg]P[dR][Cha]SHKG[Oic][Nle]P[d2Nal]-OH
SMILES: CCCCCCCCCCCCC(=O)NCCC(C(=O)O)C(=O)NCCOCCOCC(=O)NCCOCCOCC(=O)N[C@H](CCC(N)=O)C(=O)N[C@@H](CCCCNC(=N)N)C(=O)N1CCC[C@H]1C(=O)N[C@H](CCCNC(=N)N)C(=O)N[C@@H](CC1CCCCC1)C(=O)N[C@@H](CO)C(=O)N[C@@H](Cc1c[nH]cn1)C(=O)N[C@@H](CCCCN)C(=O)NCC(=O)N1[C@H](C(=O)N[C@@H](CCCC)C(=O)N2CCC[C@H]2C(=O)N[C@H](Cc2ccc3ccccc3c2)C(=O)O)C[C@@H]2CCCC[C@@H]21
B2: Apelin polypeptide SEQ ID NO: 431 (peptide)
peptide: Tridecanoyl-[γGlu][AEEA][AEEA][dQ][hArg]P[dR][Cha]SHKG[Oic][Nle]P[dIgl]-OH
SMILES: CCCCCCCCCCCCC(=O)N[C@@H](CCC(=O)NCCOCCOCC(=O)NCCOCCOCC(=O)N[C@H](CCC(N)=O)C(=O)N[C@@H](CCCCNC(=N)N)C(=O)N1CCC[C@H]1C(=O)N[C@H](CCCNC(=N)N)C(=O)N[C@@H](CC1CCCCC1)C(=O)N[C@@H](CO)C(=O)N[C@@H](Cc1c[nH]cn1)C(=O)N[C@@H](CCCCN)C(=O)NCC(=O)N1[C@H](C(=O)N[C@@H](CCCC)C(=O)N2CCC[C@H]2C(=O)N[C@@H](C(=O)O)C2Cc3ccccc3C2)C[C@@H]2CCCC[C@@H]21)C(=O)O
B3: Apelin polypeptide SEQ ID NO: 432 (peptide)
peptide: Tridecanoyl-[γGlu][AEEA][AEEA][dQ][hArg]P[dR][Cha]SHKG[Oic][Nle]P[B4ClF]-OH
B4: Apelin polypeptide SEQ ID NO: 453 (peptide)
peptide: Tridecanoyl-[AC4Abu][AEEA][AEEA][dQ][hArg]P[dR][Cha]SHKG[Oic][Nle][dPhe(4-I)]-OH
SMILES: CCCCCCCCCCCCC(=O)NCCC(C(=O)O)C(=O)NCCOCCOCC(=O)NCCOCCOCC(=O)N[C@H](CCC(N)=O)C(=O)N[C@@H](CCCCNC(=N)N)C(=O)N1CCC[C@H]1C(=O)N[C@H](CCCNC(=N)N)C(=O)N[C@@H](CC1CCCCC1)C(=O)N[C@@H](CO)C(=O)N[C@@H](Cc1c[nH]cn1)C(=O)N[C@@H](CCCCN)C(=O)NCC(=O)N1[C@H](C(=O)N[C@@H](CCCC)C(=O)N[C@H](Cc2ccc(I)cc2)C(=O)O)C[C@@H]2CCCC[C@@H]21
B5: Apelin polypeptide SEQ ID NO: 595 (peptide)
peptide: Tridecanoyl-[γGlu][AEEA][AEEA][dQ][hArg]P[dR][Cha]SHKG[Oic][Nle][Aic]-OH
SMILES: CCCCCCCCCCCCC(=O)N[C@@H](CCC(=O)NCCOCCOCC(=O)NCCOCCOCC(=O)N[C@H](CCC(N)=O)C(=O)N[C@@H](CCCCNC(=N)N)C(=O)N1CCC[C@H]1C(=O)N[C@H](CCCNC(=N)N)C(=O)N[C@@H](CC1CCCCC1)C(=O)N[C@@H](CO)C(=O)N[C@@H](Cc1c[nH]cn1)C(=O)N[C@@H](CCCCN)C(=O)NCC(=O)N1[C@H](C(=O)N[C@@H](CCCC)C(=O)NC2(C(=O)O)Cc3ccccc3C2)C[C@@H]2CCCC[C@@H]21)C(=O)O
B6: Apelin polypeptide SEQ ID NO: 596 (peptide)
peptide: Tridecanoyl-[γGlu][AEEA][AEEA][dQ][hArg]P[dR][Cha]SHKG[Oic][Nle][Oic]-OH
SMILES: CCCCCCCCCCCCC(=O)N[C@@H](CCC(=O)NCCOCCOCC(=O)NCCOCCOCC(=O)N[C@H](CCC(N)=O)C(=O)N[C@@H](CCCCNC(=N)N)C(=O)N1CCC[C@H]1C(=O)N[C@H](CCCNC(=N)N)C(=O)N[C@@H](CC1CCCCC1)C(=O)N[C@@H](CO)C(=O)N[C@@H](Cc1c[nH]cn1)C(=O)N[C@@H](CCCCN)C(=O)NCC(=O)N1[C@H](C(=O)N[C@@H](CCCC)C(=O)N2[C@H](C(=O)O)C[C@@H]3CCCC[C@@H]32)C[C@@H]2CCCC[C@@H]21)C(=O)O
B7: Apelin polypeptide SEQ ID NO: 373 (peptide)
peptide: Tridecanoyl-[γGlu][AEEA][AEEA][dQ][hArg]P[dR][Cha]SYKG[Oic][Nle]P[Phe(4-Cl)]-OH
SMILES: CCCCCCCCCCCCC(=O)N[C@@H](CCC(=O)NCCOCCOCC(=O)NCCOCCOCC(=O)N[C@H](CCC(N)=O)C(=O)N[C@@H](CCCCNC(=N)N)C(=O)N1CCC[C@H]1C(=O)N[C@H](CCCNC(=N)N)C(=O)N[C@@H](CC1CCCCC1)C(=O)N[C@@H](CO)C(=O)N[C@@H](Cc1ccc(O)cc1)C(=O)N[C@@H](CCCCN)C(=O)NCC(=O)N1[C@H](C(=O)N[C@@H](CCCC)C(=O)N2CCC[C@H]2C(=O)N[C@@H](Cc2ccc(Cl)cc2)C(=O)O)C[C@@H]2CCCC[C@@H]21)C(=O)O
B8: Apelin polypeptide SEQ ID NO: 434 (peptide)
peptide: Tridecanoyl-[γGlu][AEEA][AEEA][dQ][hArg]P[dR][Deg]SHKG[Oic][Nle]P[Phe(4-Cl)]-OH
SMILES: CCCCCCCCCCCCC(=O)N[C@@H](CCC(=O)NCCOCCOCC(=O)NCCOCCOCC(=O)N[C@H](CCC(N)=O)C(=O)N[C@@H](CCCCNC(=N)N)C(=O)N1CCC[C@H]1C(=O)N[C@H](CCCNC(=N)N)C(=O)NC(CC)(CC)C(=O)N[C@@H](CO)C(=O)N[C@@H](Cc1c[nH]cn1)C(=O)N[C@@H](CCCCN)C(=O)NCC(=O)N1[C@H](C(=O)N[C@@H](CCCC)C(=O)N2CCC[C@H]2C(=O)N[C@@H](Cc2ccc(Cl)cc2)C(=O)O)C[C@@H]2CCCC[C@@H]21)C(=O)O
B9: Apelin polypeptide SEQ ID NO: 433 (peptide)
peptide: Tridecanoyl-[γGlu][AEEA][AEEA][dQ][hArg]P[dR][Tle]SHKG[Oic][Nle]P[Phe(4-Cl)]-OH
SMILES: CCCCCCCCCCCCC(=O)N[C@@H](CCC(=O)NCCOCCOCC(=O)NCCOCCOCC(=O)N[C@H](CCC(N)=O)C(=O)N[C@@H](CCCCNC(=N)N)C(=O)N1CCC[C@H]1C(=O)N[C@H](CCCNC(=N)N)C(=O)N[C@H](C(=O)N[C@@H](CO)C(=O)N[C@@H](Cc1c[nH]cn1)C(=O)N[C@@H](CCCCN)C(=O)NCC(=O)N1[C@H](C(=O)N[C@@H](CCCC)C(=O)N2CCC[C@H]2C(=O)N[C@@H](Cc2ccc(Cl)cc2)C(=O)O)C[C@@H]2CCCC[C@@H]21)C(C)(C)C)C(=O)O
B10: Apelin polypeptide SEQ ID NO: 397 (peptide)
peptide: Tridecanoyl-[AC4Abu][AEEA][AEEA]Q[NMeR][αMeL]SHKG[Oic][Nle]P[Phe(4-Cl)]-OH
SMILES: CCCCCCCCCCCCC(=O)NCCC(C(=O)O)C(=O)NCCOCCOCC(=O)NCCOCCOCC(=O)N[C@@H](CCC(N)=O)C(=O)N(C)[C@@H](CCCNC(=N)N)C(=O)N[C@@](C)(CC(C)C)C(=O)N[C@@H](CO)C(=O)N[C@@H](Cc1c[nH]cn1)C(=O)N[C@@H](CCCCN)C(=O)NCC(=O)N1[C@H](C(=O)N[C@@H](CCCC)C(=O)N2CCC[C@H]2C(=O)N[C@@H](Cc2ccc(Cl)cc2)C(=O)O)C[C@@H]2CCCC[C@@H]21
B11: Apelin polypeptide SEQ ID NO: 524 (peptide)
peptide: Tridecanoyl-[γGlu][AEEA][AEEA][dQ]EP[NMeR][Cha]SHKG[Oic][Nle][Aib][Phe(4-Cl)]-OH
SMILES: CCCCCCCCCCCCC(=O)N[C@@H](CCC(=O)NCCOCCOCC(=O)NCCOCCOCC(=O)N[C@H](CCC(N)=O)C(=O)N[C@@H](CCC(=O)O)C(=O)N1CCC[C@H]1C(=O)N(C)[C@@H](CCCNC(=N)N)C(=O)N[C@@H](CC1CCCCC1)C(=O)N[C@@H](CO)C(=O)N[C@@H](Cc1c[nH]cn1)C(=O)N[C@@H](CCCCN)C(=O)NCC(=O)N1[C@H](C(=O)N[C@@H](CCCC)C(=O)NC(C)(C)C(=O)N[C@@H](Cc2ccc(Cl)cc2)C(=O)O)C[C@@H]2CCCC[C@@H]21)C(=O)O
B12: Apelin polypeptide SEQ ID NO: 525 (peptide)
peptide: Tridecanoyl-[γGlu][AEEA][AEEA][dQ][dE]P[NMeR][Cha]SHKG[Oic][Nle][Aib][Phe(4-Cl)]-OH
SMILES: CCCCCCCCCCCCC(=O)N[C@@H](CCC(=O)NCCOCCOCC(=O)NCCOCCOCC(=O)N[C@H](CCC(N)=O)C(=O)N[C@H](CCC(=O)O)C(=O)N1CCC[C@H]1C(=O)N(C)[C@@H](CCCNC(=N)N)C(=O)N[C@@H](CC1CCCCC1)C(=O)N[C@@H](CO)C(=O)N[C@@H](Cc1c[nH]cn1)C(=O)N[C@@H](CCCCN)C(=O)NCC(=O)N1[C@H](C(=O)N[C@@H](CCCC)C(=O)NC(C)(C)C(=O)N[C@@H](Cc2ccc(Cl)cc2)C(=O)O)C[C@@H]2CCCC[C@@H]21)C(=O)O

Each binder was assayed against T1, rat APJ receptor (assay: cell-based or functional assay).

| Binder | EC50 Rat APJ Receptor (GTPγS assay) [nM] |
| --- | --- |
| B1 | 216 |
| B2 | 25 |
| B3 | 16.2 |
| B4 | 20.8 |
| B5 | 54.8 |
| B6 | 33.9 |
| B7 | 3.31 |
| B8 | 11.4 |
| B9 | 19.8 |
| B10 | 16.5 |
| B11 | 346 |
| B12 | 243 |

The binders below were run against T2, human APJ receptor (assay: cell-based or functional assay).

| Binder | EC50 Human APJ Receptor (GTPγS assay) [nM] |
| --- | --- |
| B1 | 124 |
| B2 | 31.2 |
| B3 | 11.1 |
| B4 | 19 |
| B5 | 50 |
| B6 | 5.13 |
| B7 | 2.81 |
| B8 | 11 |
| B9 | 12.8 |
| B10 | 6.36 |
| B11 | 53.2 |
| B12 | 158 |

Reference: patent US10941182 (Amgen, dated 2021)
